{"source": "patent US20250026820A1", "about": "(WUHAN YZY BIOPHARMA, published 2025)", "binders": {"B1": {"name": "B2H1 anti-TGFβ single domain heavy-chain antibody (variable region, linker peptide, human IgG1 heavy chain constant region) (Fc fusion)", "heavy": "QLQLVESGGGLVQPGESLRLSCAASGIIFSASTMAWFRQAPGKQRELVALITDGDRTNYADSVKGRFTISRDNAENTVYLQMTELKFEDTAVYYCNAFWLKAYWGQGTQVTVSS", "notes": "not shown: linker peptide (GGGGS)n, n=1, 2 or 3; human IgG1 heavy chain constant region, GenBank No. AK303185.1"}, "B2": {"name": "B1B8 anti-TGFβ single domain heavy-chain antibody (variable region, linker peptide, human IgG1 heavy chain constant region) (Fc fusion)", "heavy": "EVQVVESGGGLVQPGGSLTLSCVASGFAFSFTPMRWVRQAPGKGLEWVSSISIRGDTTDYADSVKGRFTISRDNAKNTLYLQMNSLKPEDTAVYYCSRGSSISTSTERTQGTQVTVSS", "notes": "as for B1"}, "B3": {"name": "B2C2 anti-TGFβ single domain heavy-chain antibody (variable region, linker peptide, human IgG1 heavy chain constant region) (Fc fusion)", "heavy": "QLQLVESGGGLVQPGGSLRLSCAGSGIAFSRVTMAWSRQAPGKQRELVALITDGNRSAYVDSVKGRFTISRDNTKKTMSLQMNDLKPEDTAVYYCVATDWVPTRRDYWGQGTQVTVSS", "notes": "as for B1"}, "B4": {"name": "B2A2 anti-TGFβ single domain heavy-chain antibody (variable region, linker peptide, human IgG1 heavy chain constant region) (Fc fusion)", "heavy": "EVQVVESGGAAVQPGESLRLSCAASGSIFNTATMGWFRQAPGKQREMVAIITDGGRTNYADSVKGRFTISRDATKNTVYLQMNSLNPGDTAVYYCNALTIVPRSSIYWGQGTQVTVSS", "notes": "as for B1"}, "B5": {"name": "B1B7 anti-TGFβ single domain heavy-chain antibody (variable region, linker peptide, human IgG1 heavy chain constant region) (Fc fusion)", "heavy": "QVQLVESGGGLVQPGGSLTLSCTASGSMFSFYTMGWYRQATGKQRELVAGISLGGETTYAPSVKDRFTISRDNAKNTVYLQMNSLKPEDTALYNCNAYWGEDYWGQGTQVTVSS", "notes": "as for B1"}, "B6": {"name": "B2G8 anti-TGFβ single domain heavy-chain antibody (variable region, linker peptide, human IgG1 heavy chain constant region) (Fc fusion)", "heavy": "QVQLVESGGGLVQPGGSLRLSCAASGISFSYYDMGWFRQAPGKQRELVAIVTSGGRTNYADSVKGRFTISRETAKSTMYLQMNSLKSEDTGVYYCNAHWIVTTDYWGQGTQVTVAS", "notes": "as for B1"}, "B7": {"name": "B3D2 anti-TGFβ single domain heavy-chain antibody (variable region, linker peptide, human IgG1 heavy chain constant region) (Fc fusion)", "heavy": "QLQLVESGGGLVQPGGSLTLSCLASGFTFSHYPMSWVRQAPGKGLEWVSVIGSDGAIKHYSDSVKGRFAISRDNAKNTLYLQMNSLKPEDTAVYYCAEGDSRYVRNRARGQGTQVTVSS", "notes": "as for B1"}, "B8": {"name": "B2C9 anti-TGFβ single domain heavy-chain antibody (variable region, linker peptide, human IgG1 heavy chain constant region) (Fc fusion)", "heavy": "EVQVVESGGGLVQPGGSLRLSCAASASVFSWSVMGWFRQAPGKQRELVAISSGDRETYADSVKGRFTISRDNAKNTVYLQMDTLKPEDTAVYFCNAYVPVGESRGDYWGQGTQVTVSS", "notes": "as for B1"}, "B9": {"name": "B1F8 anti-TGFβ single domain heavy-chain antibody (variable region, linker peptide, human IgG1 heavy chain constant region) (Fc fusion)", "heavy": "QVQLVESGGGLVQPGGSLRLSCAASGSIFGVFYMGWFRQAPGKQREMVAISTDDRTSYVDSVKGRFTISRDNAKNTLALQMNSLKPEDTAVYFCNLNQLGTDYWGPGTQVTVSS", "notes": "also called BIF8; not shown: linker peptide (GGGGS)n, n=1, 2 or 3; human IgG1 heavy chain constant region, GenBank No. AK303185.1"}, "B10": {"name": "B3F3 anti-TGFβ single domain heavy-chain antibody (variable region, linker peptide, human IgG1 heavy chain constant region) (Fc fusion)", "heavy": "B9 heavy with G16E, A23T, E46D, V59A", "notes": "as for B1"}, "B11": {"name": "B1C5 anti-TGFβ single domain heavy-chain antibody (variable region, linker peptide, human IgG1 heavy chain constant region) (Fc fusion)", "heavy": "EVQLVESGGGEVRPGGSLRLSCVVSGFTKDYGAIGWFRQAPGQEREGLGCIARKDGDTWSADSVKGRFTISRDNVRNTVYLQMNALKPEDRGVYYCAGDPSALYGCSDRSSEYQYWGQGTQVTVSS", "notes": "as for B1"}, "B12": {"name": "B3D6 anti-TGFβ single domain heavy-chain antibody (variable region, linker peptide, human IgG1 heavy chain constant region) (Fc fusion)", "heavy": "EVQLVESGGGLVQAGGSLRLSCAASGRSFSSLAVGWFRQPPGKKREIVAAVNWSGTSTYYPDSVKGRFSISRDNTKNTVYLQMNSLKPEDTAVYYCAADPDLRWLKLWGYEYWGQGTQVTVSS", "notes": "as for B1"}, "B13": {"name": "B1B8-Fc-B1B8 (Fc fusion)", "heavy": "EVQVVESGGGLVQPGGSLTLSCVASGFAFSFTPMRWVRQAPGKGLEWVSSISIRGDTTDYADSVKGRFTISRDNAKNTLYLQMNSLKPEDTAVYYCSRGSSISTSTERTQGTQVTVSSGGGGSDKTHTCPPCPAPPVAGPSVFLFPPKPKDTLMISRTPEVTCVVVDVSHEAPEVQFNWYVDGVEVHNAKTKPREEQFNSTFRVVSVLTVVHQDWLNGKEYKCKVSNKGLPAPIEKTISKTKGQPREPQVYTLPPSRDELTKNQVSLTCLVKGFYPSDIAVEWESNGQPENNYKTTPPVLDSDGSFFLYSKLTVDKSRWQQGNVFSCSVMHEALHNHYTQKSLSLSPGGGGGSEVQVVESGGGLVQPGGSLTLSCVASGFAFSFTPMRWVRQAPGKGLEWVSSISIRGDTTDYADSVKGRFTISRDNAKNTLYLQMNSLKPEDTAVYYCSRGSSISTSTERTQGTQVTVSS"}}, "note": "Residue numbers refer to the chain shown, from its start.", "data": [{"target": "T1, TGFβ1 protein (GenScript Z03411) (human, UniProt P01137 279-390)", "T1 construct": "also called human TGF-β1; TGFβ1 antigen", "T1 sequence (P01137 279-390 limits assumed, one chain of several)": "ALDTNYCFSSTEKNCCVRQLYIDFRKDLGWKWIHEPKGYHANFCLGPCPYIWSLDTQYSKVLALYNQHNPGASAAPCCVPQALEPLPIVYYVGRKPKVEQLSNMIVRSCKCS", "assay": "ELISA; plate coated with human TGF-β1; antibody titrated; HRP anti-human Fc", "method": "(§1) A microplate was coated with 2 μL/well of the human TGF-β1/2/3 protein solution, respectively, at 4° C. overnight; the supernatant was discarded, 300 μL of a blocking solution (PBS containing 3% BSA) was added to each well, and the plate was blocked at 37° C. for 2 h; the antibodies were gradiently diluted, and the diluent was PBS containing 1% BSA. For example, the initial concentration of the antibody dilution was 500 nM, and diluted 10-fold to obtain 8 concentration gradients. The diluted antibody was added to the well of the microplate at 200 μL per well, the plate was left to stand and incubated at room temperature for 2 h, and the supernatant was discarded; the plate was washed for 3 times with 200 μL/well PBST (PBS containing 0.1% Tween 20); a diluted HRP-labeled anti-human Fc secondary antibody (SIGMA, A8667) was added, the secondary antibody was used after a 1:20000 dilution, the diluent was PBS containing 1% BSA, the volume was 100 μL/well, and the plate was incubated at room temperature for 1 h; the plate was washed for 5 times with 200 μL/well PBST; a TMB chromogenic solution (BD, 55214) was added at 100 μL/well for color development at 37° C. for 8 min. 2 M HCl stop solution was added at 100 μL/well. After the addition of the stop solution, the 450 nm values were read using a microplate reader within 30 min. Data were analyzed using GraphPad Prism 6.0 software and avidity fitting was performed to give EC50 values.", "units": {"EC50": "nM"}, "values": [{"binder": "B1", "EC50": 130}, {"binder": "B2", "EC50": 0.533}, {"binder": "B3", "EC50": 1.25}, {"binder": "B4", "EC50": 48}, {"binder": "B5", "EC50": 7.01}, {"binder": "B6", "EC50": 1.72}, {"binder": "B7", "EC50": 69.2}, {"binder": "B8", "EC50": 4.83}, {"binder": "B9", "EC50": 0.785}, {"binder": "B10", "EC50": 1.48}, {"binder": "B11", "EC50": 0.442}, {"binder": "B12", "EC50": 0.747}]}, {"target": "T2, TGFβ2 protein (GenScript Z03429) (human, UniProt P61812 303-414)", "T2 construct": "also called human TGF-β2", "T2 sequence (looked up)": "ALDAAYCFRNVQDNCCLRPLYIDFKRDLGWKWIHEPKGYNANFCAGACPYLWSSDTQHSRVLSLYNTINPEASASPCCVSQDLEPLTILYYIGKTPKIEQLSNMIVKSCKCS", "assay": "ELISA; plate coated with human TGF-β2; antibody titrated; HRP anti-human Fc", "method": "as §1", "units": {"EC50": "nM"}, "values": [{"binder": "B1", "EC50": 1.54}, {"binder": "B2", "EC50": 0.464}, {"binder": "B3", "EC50": 1.42}, {"binder": "B4", "EC50": 1.18}, {"binder": "B5", "EC50": 148}, {"binder": "B6", "EC50": 1.73}, {"binder": "B7", "EC50": 27.6}, {"binder": "B8", "EC50": 1.42}, {"binder": "B9", "EC50": 1.42}, {"binder": "B10", "EC50": 1.62}, {"binder": "B11", "EC50": 1.85}, {"binder": "B12", "EC50": 0.939}]}, {"target": "T3, TGFβ3 protein (GenScript Z03430) (human, UniProt P10600 301-412)", "T3 construct": "also called human TGF-β3", "T3 sequence (looked up)": "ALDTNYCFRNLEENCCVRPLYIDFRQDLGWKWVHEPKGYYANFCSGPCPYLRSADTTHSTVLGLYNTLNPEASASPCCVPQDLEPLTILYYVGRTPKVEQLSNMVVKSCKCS", "assay": "ELISA; plate coated with human TGF-β3; antibody titrated; HRP anti-human Fc", "method": "as §1", "units": {"EC50": "nM"}, "values": [{"binder": "B1", "EC50": 1.71}, {"binder": "B2", "EC50": 0.817}, {"binder": "B3", "EC50": 1.43}, {"binder": "B4", "EC50": 1.3}, {"binder": "B5", "EC50": 162}, {"binder": "B6", "EC50": 1.47}, {"binder": "B7", "EC50": 1.19}, {"binder": "B8", "EC50": 1.21}, {"binder": "B9", "EC50": 1.29}, {"binder": "B10", "EC50": 1.46}, {"binder": "B11", "EC50": 0.546}, {"binder": "B12", "EC50": 1.22}]}, {"target": "T1, TGFβ1 protein (GenScript Z03411)", "assay": "cell-based or functional assay", "units": {"EC50 of TGF-β1 inhibitory activity (TF-1 cell proliferation)": "nM"}, "values": [{"binder": "B13", "EC50 of TGF-β1 inhibitory activity (TF-1 cell proliferation)": 0.813}]}]}
